Here are results for 1 molecule from patent US20210108174A1 (CRISPR THERAPEUTICS, published 2021).

This assay deals with T1, biotinylated recombinant human BCMA (human, UniProt Q02223 1-54, biotinylated).
T1 construct: Bought reagent; also called biotinylated BCMA; Recombinant biotinylated human BCMA (Acro Biosystems Cat:# BC7-H82F0)
T1 sequence (looked up): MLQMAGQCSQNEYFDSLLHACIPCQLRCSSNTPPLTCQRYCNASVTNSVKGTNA
The assay can be described thus: flow cytometry, biotinylated BCMA detected with streptavidin-APC on CAR T cells. A general note: Flow cytometry measures light scatter and fluorescence of single cells or particles in a stream.

B1: Anti-BCMA CAR of CTX-160 (CD28 co-stimulatory domain) (other)
chain: EVQLVESGGGLVQPGGSLKLSCAASGIDFSRYWMSWVRQAPGKGLEWIGEINPDSSTINYADSVKGRFTISRDNAKNTLYLQMNLSRAEDTALYYCASLYYDYGDAMDYWGQGTLVTVSSGGGGSGGGGSGGGGSDIQMTQSPSSLSASVGDRVTITCRASQSVDSNVAWYQQKPEKAPKSLIFSASLRFSGVPSRFSGSGSGTDFTLTISSLQPEDFATYYCQQYNSYPLTFGAGTKLEIKSAAAFVPVFLPAKPTTTPAPRPPTPAPTIASQPLSLRPEACRPAAGGAVHTRGLDFACDIYIWAPLAGTCGVLLLSLVITLYCNHRNRSKRSRLLHSDYMNMTPRRPGPTRKHYQPYAPPRDFAAYRSRVKFSRSADAPAYQQGQNQLYNELNLGRREEYDVLDKRRGRDPEMGGKPRRKNPQEGLYNELQKDKMAEAYSEIGMKGERRRGKGHDGLYQGLSTATKDTYDALHMQALPPR
notes: Chimeric antigen receptor on edited primary human T cells; also called anti-BCMA (CD28) CAR
Take B1: the “percent of cells that bound biotinylated BCMA” value is 60%.
